# Measurements reported in US20070276130A1 (CHILDREN S MEDICAL CENTER, published 2007).
# Positions count from the first letter of the chain named. Ends that are not written are not given here.
# B1: peptide TVEPVS (DS-1 VP4 residues 60-64 plus a C-terminal serine) (peptide)
# peptide: TVEPVS
# modifications: also: 15N-labelled on valine, position not given here
# notes: also called leader peptide; assayed peptide
# B2: DS-1 VP8* core (residues 60-223 of DS-1 VP4) (other)
# chain: TVEPVLDGPYQPTTFKPPNDYWLLISSNTNGVVYESTNNNDFWTAVIAVEPHVSQTNRQYILFGENKQFNVENNSDKWKFFEMFKGSSQGDFSNRRTLTSSNRLVGMLKYGGRVWTFHGETPRATTDSSNTADLNNISIIIHSEFYIIPRSQESKCNEYINNGL
# notes: There are eight molecules in the asymmetric unit of the P1 crystal
# B3: RRV VP5* antigen domain (residues 247-479 of rhesus rotavirus VP4) (other)
# chain: RAQANEDIVVSKTSLWKEMQYNRDITIRFKFASSIVKSGGLGYKWSEISFKPANYQYTYTRDGEEVTAHTTCSVNGMNDFNFNGGSLPTDFVISRYEVIKENSYVYVDYWDDSQAFRNMVYVRSLAANLNSVICTGGDYSFALPVGQWPVMTGGAVSLHSAGVTLSTQFTDFVSLNSLRFRFRLTVEEPSFSITRTRVSRLYGLPAANPNNGKEYYEVAGRFSLISLVPSNDD
# notes: Expressed in Sf-9 cells from a baculovirus with an N-terminal histidine tag and a thrombin site; It crystallised both as a trimer and as a dimer, so copies is left open; also called VP5Ag; VP5* antigen (R247-D479)
# Columns and labels:
# [1] = target: VP5CT of rhesus rotavirus (RRV) VP4 (rhesus rotavirus (RRV)) (UniProt P12473); experiment: X-ray crystal structure
# [2] = target: T1, DS-1 VP8* core with residues 60-64 mutated to SGSGG (human rotavirus strain DS-1, UniProt P11196 65-223 (Rotavirus A entry)); experiment: two-dimensional 15N-1H HSQC NMR; no change in the chemical shifts of the 15N valines of the peptide
# T1 construct: That conversion is mine; also called modified DS-1 VP8* core; unlabeled VP8* core
# T1 chain: B2 chain with T1S, V2G, E3S, P4G, V5G
# From the text: We used nuclear magnetic resonance (NMR) spectroscopy to assay the binding in solution of a peptide based on the leader to the potential peptide binding cleft. […] To avoid competition between the peptide and residues of the authentic N-terminal leader of the unlabeled VP8* core, residues 60-64 of the core were mutated to SGSGG using PCR.
# [3] = target: the molecule itself; experiment: X-ray crystal structure (crystal packing)
# X-ray crystal structure = target: the molecule itself; experiment: X-ray crystal structure
molecule,measurement,setting,value
VP5CT of rhesus rotavirus (RRV) VP4 (from UniProt P12473 248-525),share of the surface area of each subunit buried by trimer contacts,[1],25.8%
same,surface area of each subunit buried by trimer contacts,[1],3960 Å2
B1,binding result,[2],no binding
B2,binding result,[3],binds
B3,binding result,X-ray crystal structure,binds
